Numbered stars: 1 amine (or outer) side, 2 acyl side, 3 side chain; on linkers, the order of the positions; unused ones are H or OH. Bridge positions count the residues as written; N and C are the ends. Peptide text beside a SMILES is read from it. I, II: the chains in the order shown. TSAT = Tris-succinimidyl aminotriacetate linker; Isophthaloyl = O=C(c1cccc(C(=O)[*:2])c1)[*:1]; X1 = O=C(CN(CC(=O)[*:2])CC(=O)[*:3])[*:1]; Diglycolyl = O=C(COCC(=O)[*:2])[*:1]; DIG = diglycolic acid linker
Legend:
[1] = system: Jurkat cells; assay type: cell-based
Experimental: The apoptotic activity of test peptides is measured using a Jurkat proliferation assay.
Jurkat cells are obtained from the American Type Culture Collection (ATCC, Manassas, Va.) and are maintained in RPMI-1640 medium supplemented with 10% FBS, 100 U/mL penicillin, and 100 […] (Growth Medium). […] Cells are resuspended at a density of 1×10^6 cells/mL in Growth Medium, and 50 μl cells is added to each well of the assay plates. The plates are incubated in a 37° C., 5% CO2 incubator for 24-48 hours. Proliferation is assessed by adding 10 μL of MTT stock solution (ATCC, Manassas, Va.) to the wells. The plates are incubated in a 37° C., 5% CO2 incubator for another 2-4 hours, followed by the addition of 100 μL of 20% SDS with 0.01 N HCl. After incubation overnight in a 37° C., 5% CO2 incubator, the plates are quantified by reading the optical density at a wavelength of 595 nm (OD595) in a SpectraMax® M5 microplate reader (Molecular Devices, Sunnyvale, Calif.). The data are analyzed using GraphPad Prism® software (La Jolla, Calif.) to calculate IC50 values from a 4-parameter logistic equation.

[2] = system: HCT-116 cells; assay type: cell-based
Experimental: The apoptotic activity of test peptides is measured using an HCT-116 proliferation assay. The HCT-116 assay is used to measure the activity of TRAIL R2 agonist peptides using the colon carcinoma cell line HCT-116 (ATCC, Manassas, Va.).
In more detail, a peptide homotrimer based on the peptide monomer sequence of SEQ ID NO: 19 (See, FIG. 8B) is tested for functional activity using the HCT-116 proliferation assay. HCT-116 cells are incubated for one to two days in the presence of serially diluted peptide dimers or peptide trimers. […]
Cell viability is measured using an MTT colorimetric viability assay, a colorimetric assay that analyzes the number of viable cells by measuring the ability of mitochondrial dehydrogenase enzyme in the viable cells to cleave tetrazolium salts added to the culture medium [See, Mosmann (1983) J. Immunol. […] Using this assay, cell proliferation is assessed after 24-48 hours by adding 10 μL of MTT stock solution (ATCC, Manassas, Va.) to the wells. […] After incubation overnight in a 37° C., 5% CO2 incubator, the plates are quantified by reading the optical density at 595 nm (OD595) in a SpectraMax M5 microplate reader (Molecular Devices, Sunnyvale, Calif.). The data are analyzed using GraphPad® Prism software (La Jolla, Calif.) to calculate IC50 values from a 4-parameter logistic equation.

[3] = target: T1, Recombinant human TRAIL R2-Fc fusion protein (R&D Systems) (human, UniProt O14763 52-182, limits assumed); assay: AlphaQuest competition: displaces biotinylated TRAIL ligand from human TRAIL R2-Fc
T1 construct: Bought from R&D Systems; held on protein A-coated acceptor beads in the AlphaQuest/AlphaScreen assay; also called TRAIL R2 receptor; R2 receptor; not shown: Fc part of the bought fusion protein
Experimental: The plates are sealed with adhesive sealing film and covered with aluminum foil, centrifuged at 600 rpm for 30 seconds and incubated overnight in the dark. […] The raw data are analyzed using GraphPad Prism® software (La Jolla, Calif.) to calculate IC₅₀ values from a 4-parameter logistic equation.
The binding affinity of the antagonist peptides and peptide-based compounds of the invention are measured according to the AlphaQuest® Competitive Binding Assay, described above, in Example 1.1. The IC₅₀ values are determined for each test peptide or test compound. The compounds tested are homodimers and homotrimers of peptides comprising the amino sequence set forth in SEQ ID NOs: 33 and 34, linked by DIG or TSAT, respectively.

[4] = target: TRAIL R2 receptor on HCT-116 or Jurkat cells (UniProt O14763 56-440, limits assumed); assay: cell-based or functional assay

| Molecule | EC50 [1] [nM] | EC50 [2] [nM] | IC50 [3] [nM] | EC50, Jurkat antagonist assay (inhibition of TRAIL ligand-induced apoptosis) [4] [nM] |
| --- | --- | --- | --- | --- |
| CC[C@H](C)[C@@H]1NC(=O)[C@H](CCCNC(=N)N)NC(=O)[C@H](CC(N)=O)NC(=O)[C@H](CC(=O)O)NC(=O)[C@H](CC(C)C)NC(=O)[C@@H](NC(=O)[C@H](CC(=O)O)NC(=O)[C@H](Cc2c[nH]c3ccccc23)NC(C)=O)CSSC[C@@H](C(=O)N[C@H](C(=O)N[C@@H](CCCCNC(=O)c2cccc(C(=O)NCCCC[C@H](NC(=O)[C@@H](NC(=O)[C@@H]3CSSC[C@H](NC(=O)[C@H](CC(=O)O)NC(=O)[C@H](Cc4c[nH]c5ccccc45)NC(C)=O)C(=O)N[C@@H](CC(C)C)C(=O)N[C@@H](CC(=O)O)C(=O)N[C@@H](CC(N)=O)C(=O)N[C@@H](CCCNC(=N)N)C(=O)N[C@@H]([C@@H](C)CC)C(=O)NCC(=O)N[C@@H](CCCNC(=N)N)C(=O)N[C@@H](CCCNC(=N)N)C(=O)N[C@@H](CCC(N)=O)C(=O)N3)C(C)C)C(=O)N[C@@H](CC(C)C)C(N)=O)c2)C(=O)N[C@@H](CC(C)C)C(N)=O)C(C)C)NC(=O)[C@H](CCC(N)=O)NC(=O)[C@H](CCCNC(=N)N)NC(=O)[C@H](CCCNC(=N)N)NC(=O)CNC1=O [SEQ ID NO: 19 homodimer (IPA linker)] (I: Ac-WDCLDNRIGRRQCVKL-NH2 / II: Ac-WDCLDNRIGRRQCVKL-NH2; disulfide I:3-I:13, II:3-II:13; linker I:15-II:15 via Isophthaloyl) | 1400 to 4020 | – | – | – |
| I: Ac-WDCLDNRIGRRQCVKL-NH2 / II: Ac-WDCLDNRIGRRQCVKL-NH2 / III: Ac-WDCLDNRIGRRQCVKL-NH2 (disulfide I:3-I:13, II:3-II:13, III:3-III:13 (inferred); linker I:15-II:15-III:15 via X1 (inferred)) [SEQ ID NO: 19 homotrimer] | – | ~480 | – | – |
| CC(=O)N[C@@H](Cc1c[nH]c2ccccc12)C(=O)N[C@@H](CC(=O)O)C(=O)N[C@H]1CSSC[C@@H](C(=O)N[C@H](C(=O)N[C@@H](CCCNC(=N)N)C(=O)N[C@@H](CC(C)C)C(=O)N[C@@H](CCC(=O)O)C(=O)N[C@@H](CCCNC(=N)N)C(=O)N[C@@H](CCCCNC(=O)COCC(=O)NCCCC[C@H](NC(=O)[C@H](CCCNC(=N)N)NC(=O)[C@H](CCC(=O)O)NC(=O)[C@H](CC(C)C)NC(=O)[C@H](CCCNC(=N)N)NC(=O)[C@@H](NC(=O)[C@@H]2CSSC[C@H](NC(=O)[C@H](CC(=O)O)NC(=O)[C@H](Cc3c[nH]c4ccccc34)NC(C)=O)C(=O)N[C@@H](CC(C)C)C(=O)N[C@@H](C(C)C)C(=O)N[C@@H](CC(=O)O)C(=O)N[C@@H](CCCNC(=N)N)C(=O)N3CCC[C@H]3C(=O)NCC(=O)N[C@@H](CCCNC(=N)N)C(=O)N[C@@H](CCCNC(=N)N)C(=O)N[C@@H](CCC(N)=O)C(=O)N2)C(C)C)C(N)=O)C(N)=O)C(C)C)NC(=O)[C@H](CCC(N)=O)NC(=O)[C@H](CCCNC(=N)N)NC(=O)[C@H](CCCNC(=N)N)NC(=O)CNC(=O)[C@@H]2CCCN2C(=O)[C@H](CCCNC(=N)N)NC(=O)[C@H](CC(=O)O)NC(=O)[C@H](C(C)C)NC(=O)[C@H](CC(C)C)NC1=O [SEQ ID NO: 30 homodimer] (I: Ac-WDCLVDRPGRRQCVRLERK-NH2 / II: Ac-WDCLVDRPGRRQCVRLERK-NH2; disulfide I:3-I:13, II:3-II:13 (inferred); linker I:19-II:19 via Diglycolyl (inferred)) | 611 to 1090 | – | – | – |
| CC(=O)N[C@@H](Cc1c[nH]c2ccccc12)C(=O)N[C@@H](CC(=O)O)C(=O)N[C@H]1CSSC[C@@H](C(=O)N[C@H](C(=O)N[C@@H](CCCCNC(=O)COCC(=O)NCCCC[C@H](NC(=O)[C@@H](NC(=O)[C@@H]2CSSC[C@H](NC(=O)[C@H](CC(=O)O)NC(=O)[C@H](Cc3c[nH]c4ccccc34)NC(C)=O)C(=O)N[C@@H](CC(C)C)C(=O)N[C@@H](C(C)C)C(=O)N[C@@H](CC(=O)O)C(=O)N[C@@H](CCCNC(=N)N)C(=O)N3CCC[C@H]3C(=O)NCC(=O)N[C@@H](CCCNC(=N)N)C(=O)N[C@@H](CCCNC(=N)N)C(=O)N[C@@H](CCC(N)=O)C(=O)N2)C(C)C)C(=O)N[C@@H](CC(C)C)C(=O)N[C@@H](CCC(=O)O)C(=O)N[C@@H](CCCNC(=N)N)C(N)=O)C(=O)N[C@@H](CC(C)C)C(=O)N[C@@H](CCC(=O)O)C(=O)N[C@@H](CCCNC(=N)N)C(N)=O)C(C)C)NC(=O)[C@H](CCC(N)=O)NC(=O)[C@H](CCCNC(=N)N)NC(=O)[C@H](CCCNC(=N)N)NC(=O)CNC(=O)[C@@H]2CCCN2C(=O)[C@H](CCCNC(=N)N)NC(=O)[C@H](CC(=O)O)NC(=O)[C@H](C(C)C)NC(=O)[C@H](CC(C)C)NC1=O [SEQ ID NO: 31 homodimer] (I: Ac-WDCLVDRPGRRQCVKLER-NH2 / II: Ac-WDCLVDRPGRRQCVKLER-NH2; disulfide I:3-I:13, II:3-II:13 (inferred); linker I:15-II:15 via Diglycolyl (inferred)) | > 22000 | – | – | – |
| Ac-WDCLDNRIGK(TSAT)RQCVRA-NH2 (disulfide 3-13 (inferred); also: homotrimer joined by TSAT linker at Lys10) [peptide homotrimer based on the monomer amino acid sequence of SEQ ID NO: 34, TSAT linker] | – | – | 0.038 | 323 |
| Ac-WDCLDNRIGK(DIG)RQCVR-NH2 (disulfide 3-13 (inferred); also: homodimer joined by DIG linker at Lys10, also called 33 Dimer DIG) [peptide homodimer based on the monomer amino acid sequence of SEQ ID NO: 33, DIG linker] | – | – | 0.111 | 5440 |
| Ac-WDCLDNRIGK(DIG)RQCVRA-NH2 (disulfide 3-13 (inferred); also: homodimer joined by DIG linker at Lys10, also called 34 Dimer DIG) [peptide homodimer based on the monomer amino acid sequence of SEQ ID NO: 34, DIG linker] | – | – | 0.06 | 1580 |

— patent US20090131317A1, “COMPOUNDS AND PEPTIDES THAT BIND THE TRAIL RECEPTOR” (AFFYMAX, INC., priority 2007, published 2009)
